In patent US20250051463A1, “CD123 ANTIBODY-DRUG CONJUGATES AND METHODS OF USING THE SAME” (ASTRAZENECA AB, priority 2023, published 2025):

Tests used:
[1] = tested on: subcutaneous EOL-1 tumors; assay: EOL-1 subcutaneous xenograft study; format: in vivo, Nude mice; conditions: 0.24 mg/kg at a single dose
Protocol: EOL-1 cells that express about 2,000 CD123/IL3Rα per cell were maintained in the RPMI-1640 medium containing 10% heat-inactivated FBS and were cultured in a humidified atmosphere of 5% CO2 and at a temperature of 37° C. On the day of implantation, cells were spun down at 1500 rpm for 5 minutes, counted, and resuspended to a final concentration of 50×10^6 cells/mL in PBS. Female Nude mice were each injected subcutaneously in the right flank with 10×10^6 cells in 200 μL volume. When average tumor volume reached ˜150-250 mm^3 on Day 9, mice were randomized into treatment groups using the Matched Distribution method built into the Study Director software.
Test and control ADC were diluted from a stock solution with vehicle buffer (20 mM histidine, 240 mM sucrose, 0.02% Polysorbate 80, pH 6.0) and were administered as a single intravenous (IV) injection according to body weight.
Tumor volume and body weight were measured twice weekly from Day 6 to Day 60 after EOL-1 implant. Tumors were measured by caliper and the volumes of tumors were calculated using the following formula:
Tumor Volume=[length (mm)×width (mm)^2]/2; where the length and the width are the longest and shortest diameters of the tumor respectively.

HUVEC = assay: CellTiter-Glo cell viability, 3 days; format: cell-based
Protocol: (§1) The CD123-expressing endothelial cell lines HUVEC and HPAEC and control cell lines RPMI-8226 (high CD123 expressing) and K562 (low expressing or negative for CD123) were cultured and co-incubated with Comparator-1 ADC, NIP228-SG3932 (isotype control for HT12-GL-SG3932) HT12-GL-SG3932, or CD123 mAb (HT12-GL) for 3 days at concentrations ranging from 0.0017 to 520 μg/mL for CD123 mAb, HT12-GL-SG3932, or NIP228-SG3932) or 0.0010 to 320 μg/mL for IMGN-IGN). Cell viability was assessed by CellTiter-Glo Cell Viability Assay and IC50 for viability was calculated (when possible) for each compound for each cell line. Expression of CD123 was assessed by western blot surface expression or by flow cytometry (FIG. 9C-9H).

HPAEC = assay: CellTiter-Glo cell viability, 3 days; format: cell-based
Protocol: as §1

RPMI-8226 = assay: CellTiter-Glo cell viability, 3 days; format: cell-based
Protocol: as §1

K562 = assay: CellTiter-Glo cell viability, 3 days; format: cell-based
Protocol: as §1

B1: pivekimab sunirine (conjugate, chains of the INN, looked up)
VH: QVQLVQSGAEVKKPGASVKVSCKASGYIFTSSIMHWVRQAPGQGLEWIGYIKPYNDGTKYNEKFKGRATLTSDRSTSTAYMELSSLRSEDTAVYYCAREGGNDYYDTMDYWGQGTLVTVSS
VL: EIQMTQSPSSLSASVGDRVTITCRASQDINSYLSWFQQKPGKAPKTLIYRVNRLVDGVPSRFSGSGSGNDYTLTISSLQPEDFATYYCLQYDAFPYTFGQGTKVEIK
modifications: sunirine payload
With B1 the “anti-tumor effect (tumor volume)” value [1] was “complete tumor regression”, the “Cytotoxicity (Viability IC50) HUVEC” value (HUVEC) was 6.9 µg/mL and the “Cytotoxicity (Viability IC50) HPAEC” value (HPAEC) was 6.0 µg/mL. For the same molecule, the “Cytotoxicity (Viability IC50) RPMI-8226” value (RPMI-8226) was 53.9 µg/mL and the “Cytotoxicity (Viability IC50) K562” value (K562) was 10.3 µg/mL.
